Data as given in the supplement of paper PMC9233669.
Fewer inactive variants are shown than the library holds.

What was measured:
biotinyl-Leu-oxazolone = assay: self-aminoacylation, catalytic enhancement (BLO) (fold over background); higher = more active; k-Seq, kA / k0A0; sequences stand for … in GGGAAUGGAUCCACAUCUACGAAUUC…UUCACUGCAGACUUGACGAAGCUG
Procedure, shortened: (§1)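 Mutagenized RNA pools with a 21-nt variable region (0.43 μM) were reacted with each biotinyl-aminoacyl-oxazolone at 2–1250 μM for 90 minutes at room temperature, in 50 μL HEPES/NaCl/KCl/MgCl2/CaCl2 buffer containing 5% acetonitrile at pH 6.9–7.0. RNA captured on streptavidin was quantified by triplicate qPCR and by Illumina sequencing. The fraction reacted for each sequence was fit to a pseudo-first-order model with bootstrapping, and catalytic enhancement is the median kA divided by the uncatalyzed rate, taken as the low-activity peak of a bimodal Gaussian fit.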

biotinyl-Val-oxazolone = assay: self-aminoacylation, catalytic enhancement (BVO) (fold over background); higher = more active; k-Seq, kA / k0A0; sequences stand for … in GGGAAUGGAUCCACAUCUACGAAUUC…UUCACUGCAGACUUGACGAAGCUG
Procedure, shortened: as §1

biotinyl-Met-oxazolone = assay: self-aminoacylation, catalytic enhancement (BMO) (fold over background); higher = more active; k-Seq, kA / k0A0; sequences stand for … in GGGAAUGGAUCCACAUCUACGAAUUC…UUCACUGCAGACUUGACGAAGCUG
Procedure, shortened: as §1

biotinyl-Phe-oxazolone = assay: self-aminoacylation, catalytic enhancement (BFO) (fold over background); higher = more active; k-Seq, kA / k0A0; sequences stand for … in GGGAAUGGAUCCACAUCUACGAAUUC…UUCACUGCAGACUUGACGAAGCUG
Procedure, shortened: as §1

biotinyl-Ile-oxazolone = assay: self-aminoacylation, catalytic enhancement (BIO) (fold over background); higher = more active; k-Seq, kA / k0A0; sequences stand for … in GGGAAUGGAUCCACAUCUACGAAUUC…UUCACUGCAGACUUGACGAAGCUG
Procedure, shortened: as §1

biotinyl-Trp-oxazolone = assay: self-aminoacylation, catalytic enhancement (BWO) (fold over background); higher = more active; k-Seq, kA / k0A0; sequences stand for … in GGGAAUGGAUCCACAUCUACGAAUUC…UUCACUGCAGACUUGACGAAGCUG
Procedure, shortened: as §1

Row | Sequence | self-aminoacylation (biotinyl-Leu-oxazolone) | self-aminoacylation (biotinyl-Val-oxazolone) | self-aminoacylation (biotinyl-Met-oxazolone) | self-aminoacylation (biotinyl-Phe-oxazolone) | self-aminoacylation (biotinyl-Ile-oxazolone) | self-aminoacylation (biotinyl-Trp-oxazolone)
1 | AUUACCCCGGUCAUCGUGUGA [Fam2.1 aminoacylation ribozyme variant] | 2.57 | 1.74 | 2.63 | 16.2 | 1.55 | 2.98
2 | AUUACCCCGUUCAUCGAGUGA [Fam2.1 aminoacylation ribozyme variant] | 3.55 | 2.77 | 4.47 | 7.48 | 2.28 | 5.03
3 | AUUACCCCUGUCAUCGAGUGA [Fam2.1 aminoacylation ribozyme variant] | 5.42 | 3.14 | 4.96 | 28.2 | 3.62 | 7.28
4 | AUUACCCGGGUAAUCGAGUGA [Fam2.1 aminoacylation ribozyme variant] | 13.9 | 5.84 | 12.1 | 81 | 5.16 | 13.2
5 | AUUACCCGGGUCAUCGAGAGA [Fam2.1 aminoacylation ribozyme variant] | 1.01 | 1.22 | 1.05 | 0.475 | 1.22 | 1.24
6 | AUUACCCGGGUCAUCGAGUAA [Fam2.1 aminoacylation ribozyme variant] | 1.54 | 1.58 | 1.91 | 8.59 | 2.05 | 3.56
7 | AUUACCCGGGUCAUUGAGUGA [Fam2.1 aminoacylation ribozyme variant] | 8.98 | 4.83 | 9.41 | 56.8 | 4.35 | 10.8
8 | AUUACCCGGGUCUUCGAGUGA [Fam2.1 aminoacylation ribozyme variant] | 8.21 | 4.57 | 7.15 | 44.4 | 4.5 | 8.46
9 | AUUACCCGGUUCAUCGAGUGA [Fam2.1 aminoacylation ribozyme variant] | 6.51 | 4.41 | 6.36 | 16.5 | 3.67 | 7.78
10 | AUUACCCUAGACAUCGAGUGA [Fam2.1 aminoacylation ribozyme variant] | 7.96 | 4.07 | 8.71 | 37 | 3.77 | 9.09
11 | AUUACCCUAGCCAUCGAGUGA [Fam2.1 aminoacylation ribozyme variant] | 3.46 | 2.13 | 3.86 | 9 | 2.02 | 4.91
12 | AUUACCCUAGUCACCGAGUGA [Fam2.1 aminoacylation ribozyme variant] | 6.48 | 3.27 | 6.48 | 23.1 | 2.89 | 7.33
13 | AUUACCCUAGUCAGCGAGUGA [Fam2.1 aminoacylation ribozyme variant] | 5.18 | 3.38 | 5.1 | 23.4 | 3.38 | 6.79
14 | AUUACCCUAGUCAUCAAGUGA [Fam2.1 aminoacylation ribozyme variant] | 3.66 | 2.58 | 3.73 | 11.2 | 2.05 | 4.95
15 | AUUACCCUAGUCAUCGAGCGA [Fam2.1 aminoacylation ribozyme variant] | 1.2 | 1.32 | 1.38 | 0.894 | 1.3 | 1.21
16 | AUUACCCUAGUCAUCGAGUCA [Fam2.1 aminoacylation ribozyme variant] | 0.674 | 0.893 | 0.631 | 0.47 | 0.724 | 0.546
17 | AUUACCCUAGUCAUCGAGUGA [Fam2.1 aminoacylation ribozyme variant] | 5.12 | 3.05 | 4.92 | 18 | 2.89 | 6.3
18 | AUUACCCUAGUCAUCGCGUGA [Fam2.1 aminoacylation ribozyme variant] | 9.91 | 5.09 | 8.29 | 54.5 | 4.26 | 10.1
19 | AUUACCCUAGUCAUUGAGUGA [Fam2.1 aminoacylation ribozyme variant] | 6.93 | 3.86 | 6.69 | 25.9 | 3.69 | 9.31
20 | AUUACCCUAGUUAUCGAGUGA [Fam2.1 aminoacylation ribozyme variant] | 8.3 | 3.83 | 8.68 | 50.7 | 3.77 | 11.1
21 | AUUACCCUCGUCAGCGAGUGA [Fam2.1 aminoacylation ribozyme variant] | 4.33 | 2.58 | 3.5 | 9.66 | 2.39 | 4.57
22 | AUUACCCUCGUCAUCGAGUGA [Fam2.1 aminoacylation ribozyme variant] | 3.09 | 2.07 | 2.98 | 8.82 | 2.08 | 3.22
23 | AUUACCCUCGUCAUCGAGUGG [Fam2.1 aminoacylation ribozyme variant] | 1.46 | 0.932 | 1.31 | 0.728 | 0.948 | 0.389
24 | AUUACCCUCGUCAUCGGGUGA [Fam2.1 aminoacylation ribozyme variant] | 4.5 | 2.77 | 3.84 | 24.1 | 2.39 | 3.81
25 | AUUACCCUCGUCAUCGUGUGA [Fam2.1 aminoacylation ribozyme variant] | 1.47 | 1.22 | 1.47 | 1.22 | 1.15 | 1.65
26 | AUUACCCUCGUCAUCUAGUGA [Fam2.1 aminoacylation ribozyme variant] | 3.57 | 2.7 | 3.26 | 9.86 | 2.3 | 4.43

Row | Sequence | self-aminoacylation (biotinyl-Leu-oxazolone) | self-aminoacylation (biotinyl-Val-oxazolone) | self-aminoacylation (biotinyl-Met-oxazolone) | self-aminoacylation (biotinyl-Phe-oxazolone) | self-aminoacylation (biotinyl-Ile-oxazolone) | self-aminoacylation (biotinyl-Trp-oxazolone)
27 | AUUACCCUCGUUAUCGAGUGA [Fam2.1 aminoacylation ribozyme variant] | 13.9 | 5.63 | 13.8 | 91.9 | 5.66 | 17
28 | AUUACCCUGAUCAACGAGUGA [Fam2.1 aminoacylation ribozyme variant] | 15 | 6.16 | 14.6 | 66.4 | 6.3 | 18.5
29 | AUUACCCUGAUCAUAGAGUGA [Fam2.1 aminoacylation ribozyme variant] | 15.1 | 6.89 | 15.8 | 70.5 | 6.32 | 17.7
30 | AUUACCCUGAUCAUCGAAUGA [Fam2.1 aminoacylation ribozyme variant] | 0.898 | 0.871 | 0.93 | 0.602 | 0.936 | 0.561
31 | AUUACCCUGAUCAUCGAGUGA [Fam2.1 aminoacylation ribozyme variant] | 7.82 | 4.15 | 7.96 | 21.8 | 3.8 | 9.57
32 | AUUACCCUGAUCAUCGAGUUA [Fam2.1 aminoacylation ribozyme variant] | 0.958 | 1.11 | 0.824 | 0.549 | 1.02 | 0.61
33 | AUUACCCUGAUCAUCGGGUGA [Fam2.1 aminoacylation ribozyme variant] | 9.62 | 5.38 | 9.51 | 67.3 | 5.24 | 10.7
34 | AUUACCCUGAUCCUCGAGUGA [Fam2.1 aminoacylation ribozyme variant] | 3.73 | 2.52 | 3.7 | 8.63 | 2.35 | 3.91
35 | AUUACCCUGAUCUUCGAGUGA [Fam2.1 aminoacylation ribozyme variant] | 5.04 | 2.74 | 4.57 | 15.7 | 2.56 | 6.11
36 | AUUACCCUGCACAUCGAGUGA [Fam2.1 aminoacylation ribozyme variant] | 7.49 | 3.65 | 6.87 | 29.8 | 3.01 | 8.38
37 | AUUACCCUGCUAAUCGAGUGA [Fam2.1 aminoacylation ribozyme variant] | 2.41 | 1.58 | 2.41 | 11.2 | 1.44 | 3.01
38 | AUUACCCUGCUCAUCGAGUGG [Fam2.1 aminoacylation ribozyme variant] | 1.09 | 0.81 | 1 | 0.52 | 0.831 | 0.578
39 | AUUACCCUGCUCAUUGAGUGA [Fam2.1 aminoacylation ribozyme variant] | 4.39 | 2.39 | 4.57 | 19.1 | 2.27 | 5.58
40 | AUUACCCUGGACAUCGAGUGC [Fam2.1 aminoacylation ribozyme variant] | 0.793 | 0.852 | 0.807 | 1.19 | 0.87 | 0.573
41 | AUUACCCUGGACAUCGAGUUA [Fam2.1 aminoacylation ribozyme variant] | 0.772 | 0.75 | 0.682 | 0.728 | 0.805 | 0.639
42 | AUUACCCUGGACAUCGUGUGA [Fam2.1 aminoacylation ribozyme variant] | 2.45 | 1.44 | 2.41 | 10.9 | 1.39 | 2.5
43 | AUUACCCUGGACAUUGAGUGA [Fam2.1 aminoacylation ribozyme variant] | 10.4 | 4.58 | 11.3 | 69.4 | 4.56 | 13.4
44 | AUUACCCUGGCCAUCGAGCGA [Fam2.1 aminoacylation ribozyme variant] | 1.66 | 1.93 | 1.61 | 9.68 | 2.02 | 2.39
45 | AUUACCCUGGCCAUCGAUUGA [Fam2.1 aminoacylation ribozyme variant] | 0.851 | 0.974 | 1.03 | 0.28 | 0.753 | 0.913
46 | AUUACCCUGGGCAUCGAGUCA [Fam2.1 aminoacylation ribozyme variant] | 0.72 | 0.768 | 0.719 | 0.615 | 0.946 | 0.708
47 | AUUACCCUGGGCAUCGAGUGA [Fam2.1 aminoacylation ribozyme variant] | 5.1 | 2.75 | 4.85 | 21.4 | 2.57 | 5.82
48 | AUUACCCUGGGCAUCGAGUUA [Fam2.1 aminoacylation ribozyme variant] | 0.805 | 1.11 | 0.642 | 1.15 | 0.909 | 0.678
49 | AUUACCCUGGGCAUCGAUUGA [Fam2.1 aminoacylation ribozyme variant] | 0.749 | 0.648 | 0.593 | 0.38 | 0.645 | 0.622
50 | AUUACCCUGGGCAUCUAGUGA [Fam2.1 aminoacylation ribozyme variant] | 7.13 | 3.38 | 6.2 | 44.6 | 3 | 7.33
51 | AUUACCCUGGUAAACGAGUGA [Fam2.1 aminoacylation ribozyme variant] | 19.1 | 7.77 | 19.8 | 150 | 7.26 | 20.1
